Test results published in patent US20050129676A1 (ADHEREX TECHNOLOGIES, published 2005).

B1: H-AWVIPP-NH2 (peptide)
peptide: H-AWVIPP-NH2
notes: Linear synthetic peptide; analogue of H-DWVIPP-NH2
B2: H-DWVIPP-NH2 (peptide)
peptide: H-DWVIPP-NH2
notes: Linear synthetic peptide; also called ADH254
B3: H-DWVIPA-NH2 (peptide)
peptide: H-DWVIPA-NH2
notes: as for B1
B4: H-DWVAPP-NH2 (peptide)
peptide: H-DWVAPP-NH2
notes: as for B1
B5: H-PWVIPP-NH2 (peptide)
peptide: H-PWVIPP-NH2
notes: as for B1
B6: H-DWVIAP-NH2 (peptide)
peptide: H-DWVIAP-NH2
notes: as for B1

Columns and labels:
[1] = biological target: T1, Fc-E-cadherin chimeric protein; assay: SPR (BIAcore X), Fc-E-cadherin captured on protein A, peptide as analyte, 3 mM CaCl2, fit to binding isotherm
T1 construct: It was captured on immobilised protein A on a CM5 chip (about 3500 RU)
T1 sequence (P12830 155-709, change not shown): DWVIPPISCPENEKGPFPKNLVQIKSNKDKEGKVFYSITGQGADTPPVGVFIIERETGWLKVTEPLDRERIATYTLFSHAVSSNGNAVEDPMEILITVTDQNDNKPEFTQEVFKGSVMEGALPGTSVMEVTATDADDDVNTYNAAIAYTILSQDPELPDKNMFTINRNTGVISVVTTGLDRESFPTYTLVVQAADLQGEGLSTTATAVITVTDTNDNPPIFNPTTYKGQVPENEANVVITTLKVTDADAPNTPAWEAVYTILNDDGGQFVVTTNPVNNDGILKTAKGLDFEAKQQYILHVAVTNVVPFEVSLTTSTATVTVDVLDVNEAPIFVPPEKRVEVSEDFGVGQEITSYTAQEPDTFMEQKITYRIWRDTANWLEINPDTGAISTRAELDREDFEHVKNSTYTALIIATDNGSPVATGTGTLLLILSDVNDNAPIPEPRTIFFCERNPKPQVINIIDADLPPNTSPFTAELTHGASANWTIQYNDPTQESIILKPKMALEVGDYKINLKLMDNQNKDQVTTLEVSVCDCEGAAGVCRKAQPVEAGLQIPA
Experimental: (§1) The binding of representative peptide modulating agents to Fc-E-cadherin chimeric protein in either the presence (3 mM CaCl₂) or absence of calcium was assessed using a BIAcore X™ Biosensor (Pharmacia Ltd., Sweden). Protein A was immobilized on the flow cells of a CM 5 sensor chip using a standard amine coupling method. The surfaces were activated with a 7 min injection of NHS/EDC, followed by a 7 min injection of protein A in 10 mM acetate pH 5.0 at a concentration of 50 ug/mL and blocked with a 7 min injection of 8 M ethanolamine, pH 8.2. […] Next, Fc-E-cadherin was injected over the protein A surface to be captured on the sensor chip.
(§2) To test compound binding to these surfaces, candidate modulating agents were injected in a three-fold dilution series over the Fc-E-cadherin-coated surfaces using six concentrations and each concentration was repeated twice.

[2] = biological target: T1, Fc-E-cadherin chimeric protein; assay: SPR (BIAcore X), Fc-E-cadherin captured on protein A, peptide as analyte, no calcium, fit to binding isotherm
Experimental: as §1, §2

[3] = biological target: T1, Fc-E-cadherin chimeric protein; assay: SPR (BIAcore X), Fc-E-cadherin captured on protein A, peptide as analyte, 3 mM CaCl2, fit to binding isotherm; with Ca^++ (3 mM CaCl2)
Experimental: as §1, §2

| Binder | Kd [1] [µM] | Kd [2] [µM] | Kd [3] [µM] |
| --- | --- | --- | --- |
| B1 | 42 |  |  |
| B2 | 34 |  |  |
| H-DWVIP-NH2 (Linear synthetic peptide) [H-DWVIP-NH2] | 36.1 | 66 |  |
| B3 | 59 |  |  |
| B4 |  |  | 21000 |
| B5 | 543 |  |  |
| B6 | 17 |  |  |
